Molecular target: hIK1 intermediate conductance, calcium-activated potassium channel (human) (UniProt O15554)
Assay: cell-based or functional assay

Chain of iberiotoxin (P24663 whole entry): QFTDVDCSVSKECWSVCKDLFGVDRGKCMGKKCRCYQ
Chain of hIK1 intermediate conductance, calcium-activated potassium channel (human) (O15554 other isoform, or with tags, fused parts or gaps): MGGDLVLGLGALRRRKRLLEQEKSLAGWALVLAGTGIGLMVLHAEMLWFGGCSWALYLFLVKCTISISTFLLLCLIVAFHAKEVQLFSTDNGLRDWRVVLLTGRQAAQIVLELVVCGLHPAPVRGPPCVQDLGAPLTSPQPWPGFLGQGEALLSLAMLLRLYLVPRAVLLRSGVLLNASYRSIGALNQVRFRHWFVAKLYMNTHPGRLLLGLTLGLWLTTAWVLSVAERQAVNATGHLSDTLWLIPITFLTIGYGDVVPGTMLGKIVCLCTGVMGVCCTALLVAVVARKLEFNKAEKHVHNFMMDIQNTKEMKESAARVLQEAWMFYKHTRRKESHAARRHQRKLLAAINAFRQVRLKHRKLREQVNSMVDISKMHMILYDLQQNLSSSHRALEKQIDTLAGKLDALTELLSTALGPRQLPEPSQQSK

iberiotoxin (from UniProt P24663 1-37) (peptide)
percent block of hIK1 current at 50 nM IBX: 15%
